Experimental data from PMC4790104 (Analytical chemistry, 2016).

T1: Ski2 (S. cerevisiae (endogenous in budding …, UniProt P35207 1-1287))
T1 sequence (looked up): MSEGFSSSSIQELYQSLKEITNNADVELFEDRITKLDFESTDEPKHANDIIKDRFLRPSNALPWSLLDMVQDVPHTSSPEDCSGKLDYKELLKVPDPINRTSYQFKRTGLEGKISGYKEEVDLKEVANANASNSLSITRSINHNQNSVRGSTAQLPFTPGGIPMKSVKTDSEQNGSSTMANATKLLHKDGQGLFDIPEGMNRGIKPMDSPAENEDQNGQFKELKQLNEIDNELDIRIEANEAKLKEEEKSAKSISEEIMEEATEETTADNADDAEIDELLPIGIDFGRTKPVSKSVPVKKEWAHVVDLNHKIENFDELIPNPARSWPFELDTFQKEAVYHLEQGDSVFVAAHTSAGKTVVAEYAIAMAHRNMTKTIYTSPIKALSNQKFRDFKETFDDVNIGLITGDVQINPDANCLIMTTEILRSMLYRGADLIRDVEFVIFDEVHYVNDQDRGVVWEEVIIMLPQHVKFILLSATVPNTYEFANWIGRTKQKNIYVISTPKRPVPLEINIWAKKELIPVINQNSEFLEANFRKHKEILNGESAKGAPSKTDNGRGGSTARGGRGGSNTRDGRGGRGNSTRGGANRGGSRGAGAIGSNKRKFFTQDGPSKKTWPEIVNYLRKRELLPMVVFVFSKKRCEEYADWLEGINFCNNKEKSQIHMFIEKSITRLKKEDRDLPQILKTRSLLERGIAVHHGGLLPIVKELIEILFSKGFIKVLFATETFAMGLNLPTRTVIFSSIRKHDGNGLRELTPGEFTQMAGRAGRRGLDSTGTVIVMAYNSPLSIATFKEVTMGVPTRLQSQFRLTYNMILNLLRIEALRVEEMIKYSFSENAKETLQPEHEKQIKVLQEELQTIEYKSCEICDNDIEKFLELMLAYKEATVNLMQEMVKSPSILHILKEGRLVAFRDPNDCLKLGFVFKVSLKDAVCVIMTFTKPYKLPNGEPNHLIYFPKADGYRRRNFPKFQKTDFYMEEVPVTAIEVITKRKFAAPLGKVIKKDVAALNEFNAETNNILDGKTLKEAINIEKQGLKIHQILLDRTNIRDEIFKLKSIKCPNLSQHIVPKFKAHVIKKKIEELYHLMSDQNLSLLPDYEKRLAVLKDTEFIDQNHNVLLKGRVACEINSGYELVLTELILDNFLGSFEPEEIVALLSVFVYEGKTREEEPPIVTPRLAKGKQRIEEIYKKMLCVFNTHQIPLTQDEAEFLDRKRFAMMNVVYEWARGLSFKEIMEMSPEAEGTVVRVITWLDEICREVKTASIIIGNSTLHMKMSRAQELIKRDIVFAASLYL

B1: Ski3 (natural protein, UniProt P17883 1-1432, looked up)
chain: MSDIKQLLKEAKQELTNRDYEETIEISEKVLKLDPDNYFAHIFLGKALSSLPASNNVSSNRNLERATNHYVSAAKLVPDNLLAWKGLFLLFRTTEVVPDILSYDEYFDLCGQYADALLKQEQSQVELINDIKLLKKTHPDCQKAFYQHLKPGSLMAETIGRHLSTPQDALLNLIKILSNIETTEIGKTLSQNRLKLKASDPDYQIKLNSFSWEIIKNSEIDQLYNQLVNILADDQKRSEIENQWLEYRIKVLKSMPLDVKKDFFTKVKEMVEDMVLVNHQSLLAWQKYFEWTDYEDLDNMDAPLIIKYFKKFPKDPLAMILYSWLSSKLSKYDIKSLESANKPPEGHKKTEKETDIKDVDETNEDEVKDRVEDEVKDRVEDEVKDQDEEAKEDEEEDLDDIEIGLLEEEVVTVLTENIVKCKNNILAHRILCQYYLLTKEYEAALPYIKNGISLIAYNIKDLGVHLPLTKREFSLDLATVYTYVDAPKDHNAALKLYDNILSGDFSNIQAKMGKGIIFIERKNWKDAMTLLTQVHEQSPNNLEVLSELSWSKAHMGYMDEALAGLDTVIKGIKGMDLRSIDFRALNLWRQAKVYIMKHASINDAKQENVKCAFKLLIQSIKILDTFAPGFSTLGDIYCHYYKDHLRAFKCYFKAFDLDAGDYTAAKYITETYASKPNWQAASSIASRLIKGEKAKAELRSNNWPFRVVGIAHLEKQEESDSIEWFQSALRVDPNDVESWVGLGQAYHACGRIEASIKVFDKAIQLRPSHTFAQYFKAISLCDVGEYLESLDILEKVCQEAATEESFQIGLVEVLMRCSLDLYSQGFLLKSVSIAKDTIERIKIIISELKCENQQVWIYLSQVLRLFIWIESKVDTLPVESLVSIFENSQFSGSEEIDSVDNIKIDTLLDSTTDDNVSIACKFLILASKYSVSDQKFTDIAGTVRASYWYNIGISELTAFITLKEPQYRDAAIFAFKKSIQLQSNTSETWIGLGIATMDINFRVSQHCFIKATALEPKATNTWFNLAMLGLKKKDTEFAQQVLNKLQSLAPQDSSPWLGMALILEEQGDIIGSSKLFAHSFILSNGRSKAAQFMYAKNVLENHINNGDDERDIETVEKLTTASIALEQFFKKSPDSQFALQCALLTLERLHHYENANELANRLIGILEKKFEKTQDERELFNFAIIKGQFARIHLGLGNFELSIENADLSQGIISESSDEKSMKTKISNHICLGLSYFFLNDFDQTLNQFQELLSISKDSKHLVVLIAKVLYDVGESDTKEIALQELTEYIATSGADLLVTLTIAAMSILDDKREDLSIILEELKALPLSKQIIDKHKDAPYLIEEITKRLYRNDTGKQVWQRSAYFFPNNLKVWERLDKNIQRRIASNGQNKVTAEEMSKLYCESKNLRSIQRGMFLCPWNVTAVKALNECF

Tests used:
Experiment in all cases: native MS
Ski2 = biological target: T1, Ski2
native MS = biological target: the molecule itself
Ski3 = biological target: B1

stoichiometry N (Ski2)	stoichiometry N (Ski3)	Binder	stoichiometry N (native MS)
1	–	B1	–
–	–	Ctf4 (natural protein, UniProt Q01454 1-927, looked up) MVSVIDKLVFDFGGKTLVSLAPDNNTLCVANKNGLTKILKTNNPEEEPETLDSSKLVSSIKCYSNSHFLMTTMQGDALRYNIDSSQEELLARFALPLRDCCVIHSGKMAVFGGDDLELILLELDDETHKKHAIKIDEQVSQISYNSQMNILAVSMINGKVQIFSLTSTIPNKVHELNDYIVANSYDDTHRDKILSNMMDDIDKDNDNDLSETADPDENNVADPEFCAANRICTRVAWHPKGLHFALPCADDTVKIFSIKGYSLQKTLSTNLSSTKAHFIDLQFDPLRGTYIAAVDLNNKLTVWNWETSEIHYTREFKRKITNIAWKIQADSKTLDLVLGTWSGSIAIVQNLAESVVSNIPDQSVAESSTKHGLFVDSESDLENLEGNDDINKSDKLFSDITQEANAEDVFTQTHDGPSGLSEKRKYNFEDEEDFIDDDDGAGYISGKKPHNEHSYSRVHKTHSFPISLANTGKFRYMPFSPAGTPFGFTDRRYLTMNEVGYVSTVKNSEQYSITVSFFDVGRFREYHFEDLFGYDLCFLNEKGTLFGQSKTGQIQYRPHDSIHSNWTKIIPLQAGERITSVAATPVRVIVGTSLGYFRSFNQFGVPFAVEKTSPIVALTAQNYRVFSVHYSQFHGLSYSLSELGTSSKRYYKRECPLPMSLPNINSDMKKDANLDYYNFNPMGIKSLFFSSYGDPCIFGSDNTLLLLSKWRSPEESKWLPILDSNMEIWKMSGGKETTDIHVWPLALAYDTLNCILVKGKHIWPEFPLPLPSEMEIRMPVFVKSKLLEENKAILNKKNEIGADTEAEEGEEDKEIQIPVSMAAEEEYLRSKVLSELLTDTLENDGEMYGNENEVLAALNGAYDKALLRLFASACSDQNVEKALSLAHELKQDRALTAAVKISERAELPSLVKKINNIREARYEQQLK	3
2	2	Ski8 (natural protein, UniProt Q02793 1-397, looked up) MSKVFIATANAGKAHDADIFSVSACNSFTVSCSGDGYLKVWDNKLLDNENPKDKSYSHFVHKSGLHHVDVLQAIERDAFELCLVATTSFSGDLLFYRITREDETKKVIFEKLDLLDSDMKKHSFWALKWGASNDRLLSHRLVATDVKGTTYIWKFHPFADESNSLTLNWSPTLELQGTVESPMTPSQFATSVDISERGLIATGFNNGTVQISELSTLRPLYNFESQHSMINNSNSIRSVKFSPQGSLLAIAHDSNSFGCITLYETEFGERIGSLSVPTHSSQASLGEFAHSSWVMSLSFNDSGETLCSAGWDGKLRFWDVKTKERITTLNMHCDDIEIEEDILAVDEHGDSLAEPGVFDVKFLKKGWRSGMGADLNESLCCVCLDRSIRWFREAGGK	–
